Experimental data as given in US20240382604A1 (GUANGZHOU MEDICAL UNIVERSITY, published 2024).
No end group written: not given here.

Target: papain-like protease (PLpro), enzyme used in the in vitro enzyme assay (SARS-CoV-2, UniProt P0DTD1 1564-1878, limits assumed)
Experiment: cell-based or functional assay

SRLRGG-GRL0617 [peptide-drug conjugate RG-17 (polypeptide SRLRGG linked with GRL0617)]
IC50, inhibition of PLpro activity in the in vitro enzyme assay (hydrolysis of substrate RLRGG-AMC, AMC fluorescence): 1400 nM
